From US20130324474A1 (Eli Lilly, published 2013)

How the values were obtained:
[1] = molecular target: T1, Recombinant Human GFRα-1/GDNF Rα-1 Fc Chimera (human, UniProt P56159 25-429); assay: Biacore (SPR), GFRα-1; 4 C sample of the 4-week stability comparison
T1 construct: Purchased Fc chimera; It was captured on protein A in Biacore and coated on the plate in ELISA; also called GFRα1-Fc; recombinant human GFRα1-Fc chimera, carrier-free; not shown: Fc part of a purchased Fc chimera
T1 sequence (looked up): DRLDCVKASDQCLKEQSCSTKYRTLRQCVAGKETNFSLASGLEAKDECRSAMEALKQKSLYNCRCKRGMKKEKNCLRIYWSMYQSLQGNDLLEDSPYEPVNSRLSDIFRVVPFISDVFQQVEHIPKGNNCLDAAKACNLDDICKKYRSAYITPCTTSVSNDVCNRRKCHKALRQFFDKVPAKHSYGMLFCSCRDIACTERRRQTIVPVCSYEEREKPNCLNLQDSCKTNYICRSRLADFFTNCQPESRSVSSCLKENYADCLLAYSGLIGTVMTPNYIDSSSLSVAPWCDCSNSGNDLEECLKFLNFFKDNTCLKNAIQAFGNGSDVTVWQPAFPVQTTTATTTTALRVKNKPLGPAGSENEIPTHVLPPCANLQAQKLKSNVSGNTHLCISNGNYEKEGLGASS

[2] = molecular target: T1, Recombinant Human GFRα-1/GDNF Rα-1 Fc …; assay: ELISA, plate-bound human GFRα1-Fc; 4 C sample
Procedure: GDNF wild type and variants are tested in an ELISA assay, in which binding of the GDNF proteins to the plate-bound receptor (GFRα1) is measured. A “no GDNF” condition and/or an “irrelevant protein” condition are used as negative controls.
Each well of a 96-well plate (Greiner 655081 Immunobind ELISA plates) is coated with 70 μl of human GFRα1 (recombinant human GFRα1-Fc chimera, carrier-free) at 1 μg/ml in carbonate buffer, pH 9.6. If an irrelevant receptor is coated, it is an irrelevant Fc chimera and is coated at the same concentration as GFRα1. The plates are sealed and incubated at 4° C. overnight. The wells are aspirated and washed twice with washing buffer (20 mM Tris (hydroxymethyl) aminomethane, pH 7.4, 0.15 M NaCl, 0.1% Tween-20), using an automatic plate washer. The plates are blocked with 200 μl blocking buffer per well (3% Carnation Instant milk in the above washing buffer) for at least 1 hour at room temperature. Plates are washed twice with washing buffer.
GDNF proteins are serially diluted into blocking buffer at an appropriate concentration range, typically beginning at 5 μg/ml and serially diluting 1:10. A no GDNF control is used, which consists of blocking buffer alone. 50 μl of each GDNF solution is added to the GFRα1 coated wells in triplicate. The plates are incubated for 1.5 hours at room temperature. The wells are then washed 3 times with washing buffer.

[3] = molecular target: human c-Ret (human, UniProt P07949 29-1114, phosphorylation at Y1016 is the readout); assay: cell-based or functional assay
[4] = molecular target: T2, Recombinant Human GFRα-2/GDNF Rα-2 Fc Chimera (human, UniProt O00451 22-441); assay: SPR (Biacore 2000), human GFRα2-Fc captured on protein A, GDNFv as analyte, 1:1 Langmuir, 25 C
T2 construct: Purchased Fc chimera; not shown: Fc part of a purchased Fc chimera
T2 sequence (looked up): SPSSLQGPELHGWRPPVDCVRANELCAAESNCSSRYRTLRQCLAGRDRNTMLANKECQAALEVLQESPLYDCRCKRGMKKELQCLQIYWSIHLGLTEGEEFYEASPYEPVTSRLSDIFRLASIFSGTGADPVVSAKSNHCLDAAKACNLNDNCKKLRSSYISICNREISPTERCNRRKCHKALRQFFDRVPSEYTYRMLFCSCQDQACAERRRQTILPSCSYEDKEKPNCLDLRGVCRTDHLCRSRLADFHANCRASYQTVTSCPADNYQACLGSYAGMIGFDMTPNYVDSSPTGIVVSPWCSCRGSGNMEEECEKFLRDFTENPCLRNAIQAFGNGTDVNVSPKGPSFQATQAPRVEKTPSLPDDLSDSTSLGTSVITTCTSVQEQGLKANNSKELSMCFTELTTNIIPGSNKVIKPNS
Procedure: A Biacore® 2000 instrument is used to measure the binding kinetics of GDNFv to human and rat GDNF family receptors (GFRα1 and GFRα2). Measurements are performed at 25° C. Samples are dissolved in HBS-EP buffer (150 mM sodium chloride, 3 mM EDTA, 0.005% (w/v) surfactant P-20, pH 7.4). Protein A, Staphylococcus aureus is immobilized on flow cells 1 to 4 of a CM4 sensor chip (GE Healthcare #BR-1005-39) at a level of ˜200 response units (RUs) using amine coupling chemistry to capture GFR Fc chimera (Recombinant Human GFRα-1/GDNF Rα-1 Fc Chimera; Recombinant Human GFRα-2/GDNF Rα-2 Fc Chimera; Recombinant Rat GFRα-1/GDNF Rα-1 Fc Chimera; Recombinant Mouse GFRα-2/GDNF Rα-2 Fc Chimera).
Binding is evaluated using multiple cycles. Each cycle consists of the following steps: 1) injection of about 10 μL of GFR at a concentration of ˜1.0 μg/mL and a flow rate of 10 μL/min., aiming at a capture of 120-150 RUs; 2) injection of 250 μL of GDNFv at a flow rate of 50 μL/min., in a final concentration rage between 10 nM and 0.04 nM followed by […]. for dissociation; and 3) regeneration using about 30 μL of 10 mM glycine hydrochloride, pH 1.5. Association and dissociation rates for each cycle are evaluated using a “1:1 (Langmuir) binding” model in the BIAevaluation software, version 4.1.

Sequence of human c-Ret (P07949 29-1114): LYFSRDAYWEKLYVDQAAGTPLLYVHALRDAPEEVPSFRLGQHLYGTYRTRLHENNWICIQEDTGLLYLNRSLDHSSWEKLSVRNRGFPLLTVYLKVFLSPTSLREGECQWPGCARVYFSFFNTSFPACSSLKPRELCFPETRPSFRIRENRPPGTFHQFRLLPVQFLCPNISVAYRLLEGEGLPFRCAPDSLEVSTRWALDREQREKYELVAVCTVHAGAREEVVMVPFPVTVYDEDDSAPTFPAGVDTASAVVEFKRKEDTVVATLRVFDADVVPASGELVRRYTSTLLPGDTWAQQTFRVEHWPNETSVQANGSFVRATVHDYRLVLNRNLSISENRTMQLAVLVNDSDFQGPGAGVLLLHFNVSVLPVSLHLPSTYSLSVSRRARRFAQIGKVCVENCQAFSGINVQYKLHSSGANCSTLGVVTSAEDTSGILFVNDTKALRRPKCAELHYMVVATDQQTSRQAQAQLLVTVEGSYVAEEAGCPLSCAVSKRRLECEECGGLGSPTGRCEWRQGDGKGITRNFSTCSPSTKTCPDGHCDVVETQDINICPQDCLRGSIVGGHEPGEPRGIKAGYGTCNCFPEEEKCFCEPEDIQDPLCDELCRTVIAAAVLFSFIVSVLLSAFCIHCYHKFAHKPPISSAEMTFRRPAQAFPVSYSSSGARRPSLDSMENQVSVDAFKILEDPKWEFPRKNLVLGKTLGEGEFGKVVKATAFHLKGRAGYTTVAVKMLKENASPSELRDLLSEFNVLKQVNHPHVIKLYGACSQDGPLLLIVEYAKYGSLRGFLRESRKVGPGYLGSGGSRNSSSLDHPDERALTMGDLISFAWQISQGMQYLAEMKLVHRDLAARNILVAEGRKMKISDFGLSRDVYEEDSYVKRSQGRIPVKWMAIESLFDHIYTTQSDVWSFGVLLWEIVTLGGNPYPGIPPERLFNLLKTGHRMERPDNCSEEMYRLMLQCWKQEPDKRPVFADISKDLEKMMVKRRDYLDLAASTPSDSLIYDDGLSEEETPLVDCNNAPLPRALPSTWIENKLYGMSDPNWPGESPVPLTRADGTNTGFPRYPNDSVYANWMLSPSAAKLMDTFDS

B1: CHO-Δ31-GDNF (SEQ ID NO: 8) (ligand)
chain: RGQRGKNRGCVLTAIHLNVTDLGLGYETKEELIFRYCSGSCDAAETTYDKILKNLSRNRRLVSDKVGQACCRPIAFDDDLSFLDDNLVYHILRKHSAKRCGCI
modifications: N-glycosylated at N49 (numbering of mature GDNF)
notes: Expressed in CHO cells; also called CHO-Δ31-GDNFv; WT CHO Δ31-GDNFv
Kd [1]: 0.029 nM | EC50 [2]: 0.6 nM | c-Ret phosphorylation at Y1016, EC50 [3]: 0.008 to 0.015 µg/mL | Kd [4]: 0.047 nM | koff [4]: 0.00025 s⁻¹ | kon [4]: 5.3e+06 M⁻¹ s⁻¹

B2: CHO-Δ31-N38Q-D95E-GDNF (SEQ ID NO: 9) (ligand)
chain: RGQRGKQRGCVLTAIHLNVTDLGLGYETKEELIFRYCSGSCDAAETTYDKILKNLSRNRRLVSEKVGQACCRPIAFDDDLSFLDDNLVYHILRKHSAKRCGCI
modifications: N-glycosylated at N49 (numbering of mature GDNF)
notes: Expressed in CHO cells; also called CHO-Δ31-N38Q-D95E-GDNFv; GDNF variant 2
Kd [1]: 0.03 nM | EC50 [2]: 0.8 nM | c-Ret phosphorylation at Y1016, EC50 [3]: 0.008 to 0.015 µg/mL | Kd [4]: 0.047 nM | koff [4]: 0.00035 s⁻¹ | kon [4]: 7.6e+06 M⁻¹ s⁻¹
